{"source": "patent US20220064329A1", "about": "(Novo Nordisk, published 2022)", "key": {"[1]": {"molecular_target": "T1, recombinant human activated Factor VII (FVIIa) (human, UniProt P08709 61-212; P08709 213-466, Gla domain: ten glutamate residues may be gamma-carboxylated)", "T1 sequence 1": "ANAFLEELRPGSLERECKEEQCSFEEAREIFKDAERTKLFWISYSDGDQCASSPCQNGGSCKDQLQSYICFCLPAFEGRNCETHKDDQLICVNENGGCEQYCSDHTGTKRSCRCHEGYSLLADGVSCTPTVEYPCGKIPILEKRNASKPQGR", "T1 sequence 2": "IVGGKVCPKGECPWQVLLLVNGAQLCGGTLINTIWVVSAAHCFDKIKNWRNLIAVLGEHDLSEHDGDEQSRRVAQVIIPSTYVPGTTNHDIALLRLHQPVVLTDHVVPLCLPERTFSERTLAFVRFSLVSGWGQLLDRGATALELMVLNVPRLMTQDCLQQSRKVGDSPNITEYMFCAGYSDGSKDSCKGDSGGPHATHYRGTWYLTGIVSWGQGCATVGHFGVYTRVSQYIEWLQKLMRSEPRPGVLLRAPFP", "assay": "cell-based or functional assay"}, "[2]": {"molecular_target": "T2, recombinant human activated Factor VII (FVIIa) (human, UniProt P08709 61-212; P08709 213-466, ten glutamate residues of the Gla domain may be gamma-carboxylated)", "T2 sequence 1": "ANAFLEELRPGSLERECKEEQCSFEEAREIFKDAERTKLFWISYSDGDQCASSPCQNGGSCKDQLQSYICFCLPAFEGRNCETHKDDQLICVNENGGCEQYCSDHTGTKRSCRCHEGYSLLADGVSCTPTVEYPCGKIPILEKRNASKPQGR", "T2 sequence 2": "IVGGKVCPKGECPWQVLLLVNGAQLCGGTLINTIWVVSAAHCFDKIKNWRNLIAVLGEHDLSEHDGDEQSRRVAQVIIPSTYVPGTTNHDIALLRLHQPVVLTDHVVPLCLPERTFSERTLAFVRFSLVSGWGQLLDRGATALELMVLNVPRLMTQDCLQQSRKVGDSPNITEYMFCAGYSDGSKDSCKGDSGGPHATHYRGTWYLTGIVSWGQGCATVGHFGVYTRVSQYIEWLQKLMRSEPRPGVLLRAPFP", "assay": "cell-based or functional assay"}, "[3]": {"molecular_target": "T1, recombinant human activated Factor VII …", "assay": "Bio-Layer Interferometry (Fortebio), antibody on anti-human tips, FVIIa 25-200 nM", "protocol": "All steps were performed in running buffer (20 mM HEPES buffer (pH 7.4), 150 mM NaCl, 5 mM CaCl2, 0.03% Tween 20, 1 mg/ml IgG-free BSA) at […] Antibodies were captured on anti-human tips (AHC, Fortebio) for 3 min at a concentration of 10 ug/ml. This was followed by a 3 min incubation to establish a baseline. Following this, association was monitored for 3 min using four different concentrations of VIIa (25 nm, 50 nM, 100 nM, and 200 nM), followed by a 3 mi dissociation. Sensorgrams were analysed using Fortebio data analysis software."}}, "data": [{"binder": "mAb7250 (antibody, V domains shown) VH: EVQLVESGGGLVKPGGSLRLSCAASGFTFTSYSMSWVRQAPGKGLEWVSSISSRSSYICYADSVKGRFTISRDNAKNSLYLQMNSLRAEDTAVYYCAREGDTGSIGGDYMDVWGKGTTVTVSS VL: not shown", "values": [{"measurement": "AT inhibition (kinh %)", "setting": "[1]", "value": 23, "unit": "%"}, {"measurement": "TGT activity (% FVIIa)", "setting": "[1]", "value": 91, "unit": "% FVIIa"}]}, {"binder": "mAb0137(OA) (antibody, human IgG4 S228P, kappa) heavy: not shown light: EIVLTQSPATLSLSPGERATLSCRASQGISDYLHWYQQKPGEAPRLLIKYTSQPATGIPARFSGSGSGTDFTLTISSLEPEDVGVYYCQNGHSFPLTFGAGTKLELKRTVAAPSVFIFPPSDEQLKSGTASVVCLLNNFYPREAKVQWKVDNALQSGNSQESVTEQDSKDSTYSLSSTLTLSKADYEKHKVYACEVTHQGLSSPVTKSFNRGEC VESKYGPPCPPCPAPEFLGGPSVFLFPPKPKDTLMISRTPEVTCVVVDVSQEDPEVQFNWYVDGVEVHNAKTKPREEQFNSTYRVVSVLTVLHQDWLNGKEYKCKVSNKGLPSSIEKTISKAKGQPREPQVYTLPPSQEEMTKNQVSLTCLVKGFYPSDIAVEWESNGQPENNYKTTPPVLDSDGSFLLYSKLTVDKSRWQEGNVFSCSVMHEALHNHYTQKSLSLSLGK", "values": [{"measurement": "AT inhibition (kinh %)", "setting": "[2]", "value": 105, "unit": "%"}, {"measurement": "TGT activity (%% FVIIa)", "setting": "[2]", "value": 102, "unit": "%"}]}, {"binder": "mAb0139(OA) (antibody, human IgG4 S228P, kappa) heavy: not shown light: EIVLTQSPATLSLSPGERATLSCRASQGISDYLHWYQQKPGEAPRLLIKYTSQPATGIPARFSGSGSGTDFTLTISSLEPEDVGVYYCQNGHSFPLTFGAGTKLELKRTVAAPSVFIFPPSDEQLKSGTASVVCLLNNFYPREAKVQWKVDNALQSGNSQESVTEQDSKDSTYSLSSTLTLSKADYEKHKVYACEVTHQGLSSPVTKSFNRGEC VESKYGPPCPPCPAPEFLGGPSVFLFPPKPKDTLMISRTPEVTCVVVDVSQEDPEVQFNWYVDGVEVHNAKTKPREEQFNSTYRVVSVLTVLHQDWLNGKEYKCKVSNKGLPSSIEKTISKAKGQPREPQVYTLPPSQEEMTKNQVSLTCLVKGFYPSDIAVEWESNGQPENNYKTTPPVLDSDGSFLLYSKLTVDKSRWQEGNVFSCSVMHEALHNHYTQKSLSLSLGK", "values": [{"measurement": "AT inhibition (kinh %)", "setting": "[2]", "value": 110, "unit": "%"}, {"measurement": "TGT activity (%% FVIIa)", "setting": "[2]", "value": 100, "unit": "%"}]}, {"binder": "mAb0109 (antibody, human IgG4 S228P, kappa, V domains shown, humanized 11F2 variant, first round) VH: DVQLQESGPGLVEPSQSLSLTCTVTGYSITSDSAWSWIRQFPGNKLEWMGYIQYSGSTNYNPSLKSRISVTRDTSKNQFFLRLSSVTAEDTATYYCTRSVNYYGNSFAVGYWGQGTSVTVSS VL: EIVLTQSPATLSLSPGERATLSCRASQGISDYLHWYQQKPGEAPRLLIKYTSQPATGIPARFSGSGSGTDFTLTISSLEPEDVGVYYCQSGHSFPLTFGAGTKLELKR", "values": [{"measurement": "Kd", "setting": "[3]", "value": 11, "unit": "nM"}]}, {"binder": "mAb0112 (antibody, human IgG4 S228P, kappa, V domains shown, humanized 11F2 variant, first round) VH: DVQLQESGPGLVEPSQTLSLTCTVSGYSITSDSAWSWIRQFPGKKLEWMGYIQYSGSTNYNPSLKSRVTISRDTSKNQFSLKLSSVTAEDTAVYYCARSVNYYGNSFWVGYWGQGTSVTVSS VL: EIVLTQSPATLSLSPGERATLSCRASQGISDYLHWYQQKPGEAPRLLIKYTSQPATGIPARFSGSGSGTDFTLTISSLEPEDVGVYYCQNGHSFPLTFGAGTKLELKR", "values": [{"measurement": "Kd", "setting": "[3]", "value": 13, "unit": "nM"}]}, {"binder": "mAb0115 (antibody, human IgG4 S228P, kappa, V domains shown, humanized 11F2 variant, first round) VH: DVQLQESGPGLVEPSQTLSLTCTVSGYSITSDSAWSWIRQPPGKKLEWMGYIQYSGSTNYNPSLKSRVTISRDTSKNQFSLKLSSVTAEDTAVYYCARSVNYYGNSFAVGYWGQGTSVTVSS VL: EIVLTQSPATLSLSPGERATLSCRASQGISDYLHWYQQKPGEAPRLLIKYTSQPATGIPARFSGSGSGTDFTLTISSLEPEDVGVYYCQNGHSFPLTFGAGTKLELKR", "values": [{"measurement": "Kd", "setting": "[3]", "value": 1.5, "unit": "nM"}]}, {"binder": "mAb0113 (antibody, human IgG4 S228P, kappa, humanized 11F2 variant, first round) heavy: not shown light: EIVLTQSPATLSLSPGERATLSCRASQGISDYLHWYQQKPGEAPRLLIKYTSQPATGIPARFSGSGSGTDFTLTISSLEPEDVGVYYCQNGHSFPLTFGAGTKLELKRTVAAPSVFIFPPSDEQLKSGTASVVCLLNNFYPREAKVQWKVDNALQSGNSQESVTEQDSKDSTYSLSSTLTLSKADYEKHKVYACEVTHQGLSSPVTKSFNRGEC", "values": [{"measurement": "Kd", "setting": "[3]", "value": 1.8, "unit": "nM"}]}, {"binder": "mAb0117 (antibody, human IgG4 S228P, kappa, V domains shown, humanized 11F2 variant, first round) VH: DVQLQESGPGLVEPSQTLSLTCTVSGYSITSDSAWSWIRQFPGKGLEWMGYIQYSGSTNYNPSLKSRVTISRDTSKNQFSLKLSSVTAEDTAVYYCARSVNYYGNSFAVGYWGQGTSVTVSS VL: EIVLTQSPATLSLSPGERATLSCRASQGISDYLHWYQQKPGEAPRLLIKYTSQPATGIPARFSGSGSGTDFTLTISSLEPEDVGVYYCQNGHSFPLTFGAGTKLELKR", "values": [{"measurement": "Kd", "setting": "[3]", "value": 1.4, "unit": "nM"}]}, {"binder": "mAb0114 (antibody, human IgG4 S228P, kappa, V domains shown, humanized 11F2 variant, first round) VH: DVQLQESGPGLVEPSQTLSLTCTVSGYSITSDSAWSWIRQFPGKKLEWMGYIQYSGSTNYNPSLKSRVTISRDTSKNQFSLKLSSVTAADTAVYYCARSVNYYGNSFAVGYWGQGTSVTVSS VL: EIVLTQSPATLSLSPGERATLSCRASQGISDYLHWYQQKPGEAPRLLIKYTSQPATGIPARFSGSGSGTDFTLTISSLEPEDVGVYYCQNGHSFPLTFGAGTKLELKR", "values": [{"measurement": "Kd", "setting": "[3]", "value": 1.5, "unit": "nM"}]}, {"binder": "mAb0118 (antibody, human IgG4 S228P, kappa, V domains shown, humanized 11F2 variant, first round) VH: DVQLQESGPGLVEPSQTLSLTCTVSGYSITSDSAWSWIRQFPGKKLEWIGYIQYSGSTNYNPSLKSRVTISRDTSKNQFSLKLSSVTAEDTAVYYCARSVNYYGNSFAVGYWGQGTSVTVSS VL: EIVLTQSPATLSLSPGERATLSCRASQGISDYLHWYQQKPGEAPRLLIKYTSQPATGIPARFSGSGSGTDFTLTISSLEPEDVGVYYCQNGHSFPLTFGAGTKLELKR", "values": [{"measurement": "Kd", "setting": "[3]", "value": 1.7, "unit": "nM"}]}, {"binder": "mAb0116 (antibody, human IgG4 S228P, kappa, V domains shown, humanized 11F2 variant, first round) VH: DVQLQESGPGLVEPSQTLSLTCTVSGYSITSDSAWSWIRQFPGKKLEWMGYIQYSGSTNYNPSLKSRVTISRDTSKNQFSLKLSSVTAEDTAVYYCARSVNYYGNSFAVDYWGQGTSVTVSS VL: EIVLTQSPATLSLSPGERATLSCRASQGISDYLHWYQQKPGEAPRLLIKYTSQPATGIPARFSGSGSGTDFTLTISSLEPEDVGVYYCQNGHSFPLTFGAGTKLELKR", "values": [{"measurement": "Kd", "setting": "[3]", "value": 32, "unit": "nM"}]}, {"binder": "mAb0013 (antibody, V domains shown) VH: QIQLVQSGPELKKPGETVKISCKASGYTFTDYSIQWVKQAPGKGLKWMGWINTETGKPSYADDLKGRSAFSLETSGSTAYLQISNLKNEDMATYFCVRDDYYGREDYWGQGTTLTVSS VL: DIVMTQSPSSLTVTAGEKVTVSCKSSQSLLNSGDQKNYLTWYQQKPGQPPKLLIYWASTRESGVPDRFTGSGSGTDFTLTISSVQAEDLAVYYCQNDFSYPYTFGGGTKLEIK", "values": [{"measurement": "AT inhibition (kinh %)", "setting": "[1]", "value": 747, "unit": "%"}, {"measurement": "TGT activity (% FVIIa)", "setting": "[1]", "value": 128, "unit": "% FVIIa"}]}, {"binder": "mAb0110 (antibody, human IgG4 S228P, kappa, V domains shown, humanized 11F2 variant, first round) VH: DVQLQESGPGLVKPSQTLSLTCTVSGYSISSDSAWSWIRQPPGKGLEWIGYIQYSGSTNYNPSLKSRVTISRDTSKNQFSLKLSSVTAADTAVYYCARSVNYYGNSFWVDPWGQGTLVTVSS VL: DIVMTQSPATLSVTAGDRVSLSCRASQGISDYLHWYQQKSHESPRLLIKYTSQPVSGIPSRFSGSGSGSEFTLSINSVEPEDVGVYYCQNGHSFPLTFGAGTKLELKR", "values": [{"measurement": "Kd", "setting": "[3]", "value": 42000, "unit": "nM"}]}, {"binder": "mAb0701 (antibody, V domains shown) VH: QIQLQQSGPELVKPGTSVKMACKASDYTFTDYYLHWVKQRPGQGLEWIGWIYPGSGNTKFNEKFKGKATLTVDTSSSTAYMHLSSLTSDDTAVYFCTRVLGRGAMDYWGQGTSVTVSS VL: DIVLTQSPPSLAVSLGQRAIISCKASQSVSFAGTSLMYWYQQKPGQQPKVLMYRASNLEAGVPIRFSGSGSGTDFTLNIHPVEEDDVATYYCQQSREYPYTFGGGTKLEIK", "values": [{"measurement": "AT inhibition (kinh %)", "setting": "[1]", "value": 26, "unit": "%"}, {"measurement": "TGT activity (% FVIIa)", "setting": "[1]", "value": 88, "unit": "% FVIIa"}]}]}
